Here are results for 1 molecule from patent US8344120B2, “Nucleic acid molecules encoding rage fusion proteins” (TransTech Pharma, Inc., priority 2006, dated 2013).

For test [1], the system named is diabetic rat model of restenosis. The experiment in a line: Diabetic rat model of restenosis. Conditions: for Intimal area / Medial area: IP, 21 days. The test is classed as in vivo, rats. The protocol: Use of the RAGE fusion proteins in the treatment of diabetes related pathology is illustrated in FIG. 14.
In these experiments, balloon injury of left common carotid artery was performed in Zucker diabetic and nondiabetic rats using standard procedure. […] A maintenance dose was delivered every other day until day 7 after injury (i.e., at day 1, 3, 5 and 7 after injury). The maintenance dose was high=1 mg/animal for one group, or low=0.3 mg/animal for the second group. To measure vascular smooth muscle cell (VSMC) proliferation, animals were sacrificed at 4 days and 21 days after injury.
For the measurement of cell proliferation, 4 day animals received intraperitoneal injection of bromodeoxyuridine (BrDdU) 50 mg/kg at 18, 12, and 2 hours before euthanasia. After sacrifice, the entire left and right carotid arteries were harvested. Specimens were stored in Histochoice for at least 24 hours before embedding. Assessment of VSMC proliferation was performed using mouse anti-BrdU monoclonal antibody. A fluorescence labeled goat anti-mouse secondary antibody was applied. The number of BrdU-positive nuclei per section were counted by two observers blinded to the treatment regimens.
The remaining rats were sacrificed at 21 days for morphometric analysis. Morphometric analyses were performed by an observer blinded to the study groups, using computerized digital microscopic planimetry software Image-Pro Plus on serial sections, ([…]) carotid arteries stained by Van Gieson staining. All data were expressed as mean±SD. Statistical analysis was performed with use of SPSS software. Continuous variables were compared using unpaired t tests. A values of P≦0.05 was considered to be statistically significant.
In FIG. 14B, the y-axis represents the number of BrdU proliferating cells.

For test [2], the system named is S100b/RAGE-induced production of TNF-α in THP-1 cells. The experiment in a line: S100b/RAGE-induced production of TNF-α in THP-1 cells. The test is classed as cell-based. Conditions: 10 μg protein, 24 hours. From the text:
Use of the RAGE fusion proteins of the present invention to modulate expression of the cellular effector TNF-α is shown in FIG. 10. THP-1 myeloid cells may be cultured in RPMI-1640 media supplemented with 10% FBS and induced to secrete TNF-α via stimulation of RAGE with S100b. When such stimulation occurs in the presence of a RAGE fusion protein, induction of TNF-α by S100b binding to RAGE may be inhibited.
Previous work has shown that the myeloid THP-1 cells may secrete TNF-α in response to RAGE ligands. In this assay, THP-1 cells were cultured in RPMI-1640 media supplemented with 10% FBS using a protocol provided by ATCC. […] The amount of TNF-α secreted by the THP-1 cells was measured 24 hours after the addition of the proteins to the cell culture using a commercially available ELISA kit for TNF-α (R&D Systems, Minneapolis, Minn.).

The test system of the next test is Fc receptor. The experiment in a line: Fc receptor activation: TNF-α secretion from THP-1 cells. The test is classed as cell-based. From the text:
Fc stimulation results in TNF-α secretion.

For test [3], the system named is HMGB1-induced TNF-α production in THP-1 cells. Nature of the test: HMGB1-induced TNF-α production in THP-1 cells. Conditions: 24 hours. The test is classed as cell-based. Details: dose or concentration left out as unconfirmed. As to the method:
HMGB1 has been reported to be a ligand for RAGE and the Toll-Like Receptors 2 and 4 (Park et al., J Biol Chem., 2004; 279(9):7370-7). All three of these receptors (RAGE, Toll-like receptor 2, and Toll-like receptor 4) are expressed on THP-1 cells (Parker, et al., J Immunol., 2004,172(8):4977-86.).
In this experiment, THP-1 cells were stimulated to produce TNF-α by HMGB1 ([…]) in the presence or absence of either TTP4000 or anti-RAGE antibodies. Under the conditions used in the assay, HMGB1 should be the only inducer of TNF-α.
HMGB 1 has been reported to be a ligand for RAGE and the Toll-Like Receptors 2 and 4 (Park et al., J. Biol Chem., 2004; 279(9):7370-7). All three of these receptors (RAGE, Toll-like receptor 2, and Toll-like receptor 4) are expressed on THP-1 cells (Parker, et al., J. Immunol., 2004,172(8):4977-86.).
In this experiment, THP-1 cells were stimulated to produce TNF-α by HMGB1 ([…]) in the presence or absence of either TTP4000 or anti-RAGE antibodies. Under the conditions used in the assay, HMGB1 should be the only inducer of TNF-α. The amount of TNF-αsecreted by the THP-1 cells was measured 24 hours after the addition of the proteins to the cell culture using a commercially available ELISA kit for TNF-α (R&D Systems, Minneapolis, Minn.).

Test [4] concerns allogeneic rejection of transplanted islet cells. The experiment in a line: Allogeneic islet transplantation in diabetic B6 mice. Conditions: for day of graft loss for each animal: BALB/c islets in B6 mice; for day of graft loss, Mean: n 8. The test is classed as in vivo. As to the method: C57BL/6J (6-8 week old) (B6) mice were made diabetic by a single intravenous injection of streptozotocin (STZ) (Sigma Chemical Co., St. Louis, Mo.) at 200 mg/kg.
BALB/cJ (6-8 week old) (BALB) mice served as donors for islet transplantation, thus providing an allo-mismatch for islet transplants.
Mice (BALB/c) were anesthetized with ketamine HCl/xylazine HCl solution (Sigma, St. Louis Mo.). After intraductal injection of 3 ml of cold Hank's balanced salt solution (HBSS, Gibco, Grand Island N.Y.) containing 1.5 mg/ml of collagenase P (Roche Diagnostics, Branchburg, N.J.), pancreata were surgically procured and digested at 37° C. for 20 mins. Islets were washed with HBSS and purified by discontinuous gradient centrifugation using Polysucrose 400 (Cellgro, Herndon Va.) having four different densities (26%, 23%, 20%, and 11%). The tissue fragments at the interface of the 20% and 23% layers were collected, washed and resuspended in HBSS. Individual islets, free of attached acinar, vascular and ductal tissues were handpicked under an inverted microscope, yielding highly purified islets for transplantation.
Streptozotocin-induced diabetic C57BL/6 (B6) mice received islet grafts within 2 days of the diagnosis of diabetes. BALB/cJ (6-8 week old) (BALB) mice served as donors for allogeneic islet transplantation. For transplantation, 500-600 freshly isolated islets (i.e., approximately 550 islet equivalents) from donor mice were picked up with an infusion set and transplanted into the subcapular space of the right kidney of a recipient.
Test compounds were administered as soon as the islets were transplanted; administration continued for about 60 days, depending upon how the control animal was faring.
Islet graft function was monitored by serial blood glucose measurements daily for the first 2 weeks after islet transplantation, followed by every other day thereafter. Reversal of diabetes was defined as blood a glucose level of less than 200 mg/dl on two consecutive measurements. Graft loss was determined when blood glucose exceeded 250 mg/dl on two consecutive measurements.

Where [5] appears, read: High dose 1.0 mg/animal qod × 4, loading dose 3 mg/animal.
Where [6] appears, read: Low dose 0.3 mg/animal qod × 4, loading dose 3 mg/animal.

Where “and” joins values, the source holds several entries; their conditions need not be identical. Equal entries are not always repeated.

B1: TTP-4000: four domain RAGE fusion protein: human RAGE N-terminal sequence (to position 251) linked to human IgG Fc (γ1) without hinge; SEQ ID NO: 34/56 (protein)
chain: QNITARIGEPLVLKCKGAPKKPPQRLEWKLNTGRTEAWKVLSPQGGGPWDSVARVLPNGSLFLPAVGIQDEGIFRCQAMNRNGKETKSNYRVRVYQIPGKPEIVDSASELTAGVPNKVGTCVSEGSYPAGTLSWHLDGKPLVPNEKGVSVKEQTRRHPETGLFTLQSELMVTPARGGDPRPTFSCSFSPGLPRHRALRTAPIQPRVWEPVPLEEVQLVVEPEGGAVAPPSVFLFPPKPKDTLMISRTPEVTCVVVDVSHEDPEVKFNWYVDGVEVHNAKTKPREEQYNSTYRVVSVLTVLHQDWLNGKEYKCKVSNKALPAPIEKTISKAKGQPREPQVYTLPPSRDELTKNQVSLTCLVKGFYPSDIAVEWESNGQPENNYKTTPPVLDSDGSFFLYSKLTVDKSRWQQGNVFSCSVMHEALHNHYTQKSLSLSPGK
As for B1, the “vascular smooth muscle cell proliferation (BrdU-positive nuclei)” value in test [1] (4 days after injury, dose-responsive) is given as “significantly reduced”. In test [1] (setting [5]), this molecule came in with an Intimal area of 0.16 ± 0.02 mm^2 and a Medial area of 0.11 ± 0.01 mm^2. In test [1] (setting [6]), this molecule came in with an Intimal area of 0.18 ± 0.04 mm^2 and a Medial area of 0.11 ± 0.02 mm^2. Besides, the “reduction of S100b induction of TNF-α” value in test [2] (S100b 0.1 mg/ml FAC) is reported as about 70%. In test [2] (S100b 0.1 mg/ml), the “S100b induction of TNF-α, comparison in words” value is given as “at least as effective in blocking S100b induction of TNF-α as is sRAGE”. Moreover, in the test with Fc receptor (conditions where human IgG stimulation of TNF-α release is detected), the “stimulation of TNF-α release from cells” value is “does not stimulate TNF-α release”. Also, the TNF generated result in the test on Fc receptor (well precoated with 10 ug/well heat aggregated protein, THP-1 cells, 24 hours) is listed as “less than 2 ng/well”. For the same molecule, the “inhibition of HMGB1-induced TNF-α production” value in test [3] was “to a greater extent than does the anti-RAGE antibody”. Moreover, in test [4] (300 ug + 30 ug qod ip), the “day of graft loss for each animal” value is 12 day (2×) and 11 day (2×) and 8 day (2×) and 13 day and 14 day; the “day of graft loss, Mean” value stood at 11.125 days. In test [4] (300 ug LD + 100 ug qod ip), the “day of graft loss for each animal” value was 13 day (2×) and 12 day and 16 day (2×) and 15 day and 14 day (2×); the “day of graft loss, Mean” value stood at 14.125 days. Also, the “time before detection of graft failure, in words” value in test [4] (Groups 1 and 3 versus untreated, PBS or human IgG1) is reported as “increase in the time before detection of graft failure”.
